Test results: patent US20250144178A1 (KANAPH THERAPEUTICS, published 2025)

T1: recombinant human FAP (human, UniProt Q12884 26-760)
T1 construct: Soluble analyte in SPR; The description calls FAP a homodimer; also called rhFAP
T1 sequence (looked up): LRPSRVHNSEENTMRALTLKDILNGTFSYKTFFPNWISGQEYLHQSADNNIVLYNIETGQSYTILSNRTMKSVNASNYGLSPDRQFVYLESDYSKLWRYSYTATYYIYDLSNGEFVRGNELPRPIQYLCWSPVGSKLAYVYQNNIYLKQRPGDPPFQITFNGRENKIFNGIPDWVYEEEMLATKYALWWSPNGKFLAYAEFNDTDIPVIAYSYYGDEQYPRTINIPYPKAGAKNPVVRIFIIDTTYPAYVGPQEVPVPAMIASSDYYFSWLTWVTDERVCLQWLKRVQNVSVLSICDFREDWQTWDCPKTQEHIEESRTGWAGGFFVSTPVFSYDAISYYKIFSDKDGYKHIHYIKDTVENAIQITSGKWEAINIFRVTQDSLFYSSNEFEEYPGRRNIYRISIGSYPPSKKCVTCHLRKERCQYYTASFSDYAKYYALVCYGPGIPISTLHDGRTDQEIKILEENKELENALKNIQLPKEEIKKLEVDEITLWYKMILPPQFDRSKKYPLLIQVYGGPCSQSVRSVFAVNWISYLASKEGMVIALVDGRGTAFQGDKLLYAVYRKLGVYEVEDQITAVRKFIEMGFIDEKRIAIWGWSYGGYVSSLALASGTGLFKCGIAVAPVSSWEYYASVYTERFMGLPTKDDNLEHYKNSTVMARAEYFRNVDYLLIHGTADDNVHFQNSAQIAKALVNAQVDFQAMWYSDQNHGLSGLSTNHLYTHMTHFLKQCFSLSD


Biological target: T1, recombinant human FAP
Assay: SPR, captured by anti-human IgG (Fc), human FAP analyte, 1:1 binding model
Method: Bindings of T1.04, T1.05, T1.06, T1.07, T1.08, T1.09, T1.10 and T1.11 to recombinant human […] were identified by surface plasmon resonance (SPR). The surface of the CM5 chip was activated with a 1:1 mixture of […] (N-hydroxysuccinimide) and […] (1-Ethyl-3-(3-dimethylaminopropyl) carbodiimide), and 25 μg/ml of anti-human IgG (Fc) antibody was immobilized for 400 seconds at a rate of 10 μl/min. The remaining active ester groups were blocked with 1 M ethanolamine.
Specifically, human proteins T1.04, T1.05, T1.06, T1.07, T1.08, T1.09, T1.10 and T1.11 were diluted to 1 μg/ml, 1 μg/ml, 1 μg/ml, 1 μg/ml, 0.5 μg/ml, 0.5 μg/ml, 0.5 μg/ml, and 1 μg/ml, respectively, and reacted on a CM5 chip immobilized with an anti-human IgG (Fc) antibody. The recombinant human FAP was diluted to 25 nM or 50 nM in 1×HBS-EP+buffer solution and diluted by serial dilution. The diluted recombinant human FAP was reacted at a rate of 30 μl/min. The association and dissociation times were 180 seconds and 400 seconds, respectively. After the dissociation, stabilization was performed for 60 seconds, and then a regeneration was performed for 30 seconds with a 10 mM glycine pH 1.5 solution at a rate of 30 μl/min.

Kd | koff | kon | Binder
0.479 nM | 7.48e-05 s⁻¹ | 156000 M⁻¹ s⁻¹ | T1.10 (anti-hu FAP/anti-hu FAP-hu IL-12, hu IgG1 DANG (2 + 1)) (antibody, single-chain IL-12 at the C-terminus of the hole heavy chain) heavy 1: QVQLVQSGAEVKKPGASVKVSCKTSRYTFTEYTIHWVRQAPGQRLEWIGGINPNNGIPNYNQKFKGRVTITVDTSASTAYMELSSLRSEDTAVYYCARRRIAYGYDEGHAMDYWGQGTLVTVSSASTKGPSVFPLAPSSKSTSGGTAALGCLVKDYFPEPVTVSWNSGALTSGVHTFPAVLQSSGLYSLSSVVTVPSSSLGTQTYICNVNHKPSNTKVDKKVEPKSCDKTHTCPPCPAPELLGGPSVFLFPPKPKDTLMISRTPEVTCVVVAVSHEDPEVKFNWYVDGVEVHNAKTKPREEQYGSTYRVVSVLTVLHQDWLNGKEYKCKVSNKALPAPIEKTISKAKGQPREPQVYTLPPSRDELTKNQVSLWCLVKGFYPSDIAVEWESNGQPENNYKTTPPVLDSDGSFFLYSKLTVDKSRWQQGNVFSCSVMHEALHNHYTQKSLSLSPGK heavy 2: QVQLVQSGAEVKKPGASVKVSCKTSRYTFTEYTIHWVRQAPGQRLEWIGGINPNNGIPNYNQKFKGRVTITVDTSASTAYMELSSLRSEDTAVYYCARRRIAYGYDEGHAMDYWGQGTLVTVSSASTKGPSVFPLAPSSKSTSGGTAALGCLVKDYFPEPVTVSWNSGALTSGVHTFPAVLQSSGLYSLSSVVTVPSSSLGTQTYICNVNHKPSNTKVDKKVEPKSCDKTHTCPPCPAPELLGGPSVFLFPPKPKDTLMISRTPEVTCVVVAVSHEDPEVKFNWYVDGVEVHNAKTKPREEQYGSTYRVVSVLTVLHQDWLNGKEYKCKVSNKALPAPIEKTISKAKGQPREPQVYTLPPSRDELTKNQVSLSCAVKGFYPSDIAVEWESNGQPENNYKTTPPVLDSDGSFFLVSKLTVDKSRWQQGNVFSCSVMHEALHNHYTQKSLSLSPGGGGGSGGGGSGGGGSIWELKKDVYVVELDWYPDAPGEMVVLTCDTPEEDGITWTLDQSSEVLGSGKTLTIQVKEFGDAGQYTCHKGGEVLSHSLLLLHKKEDGIWSTDILKDQKEPKNKTFLRCEAKNYSGRFTCWWLTTISTDLTFSVKSSRGSSDPQGVTCGAATLSAERVRGDNKEYEYSVECQEDSACPAAEESLPIEVMVDAVHKLKYENYTSSFFIRDIIKPDPPKNLQLKPLKNSRQVEVSWEYPDTWSTPHSYFSLTFCVQVQGKSKREKKDRVFTDKTSATVICRKNASISVRAQDRYYSSSWSEWASVPCSGGGGSGGGGSGGGGSRNLPVATPDPGMFPCLHHSQNLLRAVSNMLQKARQTLEFYPCTSEEIDHEDITKDKTSTVEACLPLELTKNESCLNSRETSFITNGSCLASRKTSFMMALCLSSIYEDLKMYQVEFKTMNAKLLMDPKRQIFLDQNMLAVIDELMQALNFNSETVPQKSSLEEPDFYKTKIKLCILLHAFRIRAVTIDRVMSYLNAS light: not shown
0.267 nM | 3.19e-05 s⁻¹ | 120000 M⁻¹ s⁻¹ | T1.11 (anti-hu FAP/anti-hu FAP-hu IL-12 mut2, hu IgG1 DANG (2 + 1)) (antibody, single-chain IL-12 mut2 at the C-terminus of the hole heavy chain) heavy 1: QVQLVQSGAEVKKPGASVKVSCKTSRYTFTEYTIHWVRQAPGQRLEWIGGINPNNGIPNYNQKFKGRVTITVDTSASTAYMELSSLRSEDTAVYYCARRRIAYGYDEGHAMDYWGQGTLVTVSSASTKGPSVFPLAPSSKSTSGGTAALGCLVKDYFPEPVTVSWNSGALTSGVHTFPAVLQSSGLYSLSSVVTVPSSSLGTQTYICNVNHKPSNTKVDKKVEPKSCDKTHTCPPCPAPELLGGPSVFLFPPKPKDTLMISRTPEVTCVVVAVSHEDPEVKFNWYVDGVEVHNAKTKPREEQYGSTYRVVSVLTVLHQDWLNGKEYKCKVSNKALPAPIEKTISKAKGQPREPQVYTLPPSRDELTKNQVSLWCLVKGFYPSDIAVEWESNGQPENNYKTTPPVLDSDGSFFLYSKLTVDKSRWQQGNVFSCSVMHEALHNHYTQKSLSLSPGK heavy 2: QVQLVQSGAEVKKPGASVKVSCKTSRYTFTEYTIHWVRQAPGQRLEWIGGINPNNGIPNYNQKFKGRVTITVDTSASTAYMELSSLRSEDTAVYYCARRRIAYGYDEGHAMDYWGQGTLVTVSSASTKGPSVFPLAPSSKSTSGGTAALGCLVKDYFPEPVTVSWNSGALTSGVHTFPAVLQSSGLYSLSSVVTVPSSSLGTQTYICNVNHKPSNTKVDKKVEPKSCDKTHTCPPCPAPELLGGPSVFLFPPKPKDTLMISRTPEVTCVVVAVSHEDPEVKFNWYVDGVEVHNAKTKPREEQYGSTYRVVSVLTVLHQDWLNGKEYKCKVSNKALPAPIEKTISKAKGQPREPQVYTLPPSRDELTKNQVSLSCAVKGFYPSDIAVEWESNGQPENNYKTTPPVLDSDGSFFLVSKLTVDKSRWQQGNVFSCSVMHEALHNHYTQKSLSLSPGGGGGSGGGGSGGGGSIWELKKDVYVVELDWYPDAPGEMVVLTCDTPEEDGITWTLDQSSEVLGSGKTLTIQVKEFGDAGQYTCHKGGEVLSHSLLLLHKKEDGIWSTDILKDQKEPKNKTFLRCEAKNYSGRFTCWWLTTISTDLTFSVKSSRGSSDPQGVTCGAATLSAERVRGDNKEYEYSVECQEDSACPAAEESLPIEVMVDAVHKLKYENYTSSFFIRDIIKPDPPKNLQLKPLKNSRQVEVSWEYPDTWSTPHSYFSLTFCVQVQGASAREAADRVFTDKTSATVICRKNASISVRAQDRYYSSSWSEWASVPCSGGGGSGGGGSGGGGSRNLPVATPDPGMFPCLHHSQNLLRAVSNMLQKARQTLEFYPCTSEEIDHEDITKDKTSTVEACLPLELTKNESCLNSRETSFITNGSCLASRKTSFMMALCLSSIYEDLKMYQVEFKTMNAKLLMDPKRQIFLDQNMLAVIDELMQALNFNSETVPQKSSLEEPDFYKTKIKLCILLHAFRIRAVTIDRVMSYLNAS light: not shown
